Source: patent US20250297032A1 (CONCEPT TO MEDICINE BIOTECH, published 2025)

Tests used:
[1] = target: T1, human FAPα-His tag (Sino biological) (human, UniProt Q12884 26-760); assay: competitive ELISA on coated human FAPα; competitor (detected): FAP-G14-Bio
T1 construct: Bought protein; also called human FAPα-His protein; not shown: His tag
T1 sequence (looked up): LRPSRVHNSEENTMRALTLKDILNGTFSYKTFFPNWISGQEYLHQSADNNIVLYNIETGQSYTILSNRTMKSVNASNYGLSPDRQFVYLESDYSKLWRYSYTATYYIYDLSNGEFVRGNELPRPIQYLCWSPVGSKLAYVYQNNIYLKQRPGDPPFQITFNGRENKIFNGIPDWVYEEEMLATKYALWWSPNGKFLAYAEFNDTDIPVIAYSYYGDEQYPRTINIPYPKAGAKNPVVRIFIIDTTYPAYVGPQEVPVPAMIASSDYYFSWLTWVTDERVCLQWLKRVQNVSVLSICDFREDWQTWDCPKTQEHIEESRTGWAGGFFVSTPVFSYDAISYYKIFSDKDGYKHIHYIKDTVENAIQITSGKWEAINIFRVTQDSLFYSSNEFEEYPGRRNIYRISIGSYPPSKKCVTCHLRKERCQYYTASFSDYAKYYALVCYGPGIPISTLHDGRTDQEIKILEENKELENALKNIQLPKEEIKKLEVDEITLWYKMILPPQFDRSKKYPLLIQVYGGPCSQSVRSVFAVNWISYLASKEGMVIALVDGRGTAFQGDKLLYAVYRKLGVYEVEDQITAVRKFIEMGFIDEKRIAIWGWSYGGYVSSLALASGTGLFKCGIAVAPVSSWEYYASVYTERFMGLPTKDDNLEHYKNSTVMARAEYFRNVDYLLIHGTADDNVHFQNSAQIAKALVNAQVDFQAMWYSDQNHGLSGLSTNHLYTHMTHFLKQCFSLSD
Protocol: Competitive ELISA was carried out to classify the FAPα mAbs based on the binding epitope to human FAPα.
(§1) Briefly, microtiter plates were coated with human FAPα proteins at 0.5 μg/ml in PBS, 100 μl/well at 4° C. overnight, then blocked with 150 μl/well of 1% BSA. Serial dilutions of chimeric antibodies as well as biotin-conjugated reference mAb were added to each well and incubated for 1 hour at RT. The plates were washed with PBS/Tween and then incubate with streptavidin-HRP for 15 mins at RT. After washing, the plates were developed with TMB substrate and analyzed by spectrophotometer at OD 450 nm. According to the competition ability to reference mAbs (Benchmark, or “BMK”), all tested FAPα mAbs binds to the similar epitope as shown in Table 5.

[2] = target: T1, human FAPα-His tag (Sino biological); assay: competitive ELISA on coated human FAPα; competitor (detected): FAP-I38-Bio
Protocol: as §1

[3] = target: T1, human FAPα-His tag (Sino biological); assay: competitive ELISA on coated human FAPα; competitor (detected): FAPα (BMK)-Bio
Protocol: as §1

mouse FAPα-His protein [4] = target: T2, mouse FAPα-His protein (mouse, UniProt P97321 26-761, limits assumed); assay: ELISA, plate coated with mouse FAPα-His, anti-human IgG-HRP, OD 450 nm
T2 construct: not shown: His tag
T2 sequence (looked up): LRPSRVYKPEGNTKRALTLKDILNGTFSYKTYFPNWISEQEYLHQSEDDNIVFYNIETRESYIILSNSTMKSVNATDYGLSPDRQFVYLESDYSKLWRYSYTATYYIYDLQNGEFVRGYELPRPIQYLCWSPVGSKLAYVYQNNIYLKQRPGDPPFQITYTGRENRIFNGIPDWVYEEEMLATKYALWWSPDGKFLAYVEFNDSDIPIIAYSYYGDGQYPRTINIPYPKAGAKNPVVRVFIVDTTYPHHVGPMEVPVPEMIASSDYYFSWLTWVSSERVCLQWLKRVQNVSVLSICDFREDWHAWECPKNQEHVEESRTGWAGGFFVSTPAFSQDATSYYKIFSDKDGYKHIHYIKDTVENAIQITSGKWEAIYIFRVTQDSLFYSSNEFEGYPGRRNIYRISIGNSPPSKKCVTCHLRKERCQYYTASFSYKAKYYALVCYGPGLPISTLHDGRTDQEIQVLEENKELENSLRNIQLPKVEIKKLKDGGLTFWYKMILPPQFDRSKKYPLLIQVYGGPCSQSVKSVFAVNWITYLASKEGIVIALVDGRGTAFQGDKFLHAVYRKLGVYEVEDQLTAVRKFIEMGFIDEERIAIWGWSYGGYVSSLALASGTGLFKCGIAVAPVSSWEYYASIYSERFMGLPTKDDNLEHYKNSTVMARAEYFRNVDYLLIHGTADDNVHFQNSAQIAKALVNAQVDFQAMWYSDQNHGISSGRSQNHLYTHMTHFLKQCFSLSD
Protocol: (§2) Briefly, microtiter plates were coated with mouse FAPα-His protein at 0.5 ug/ml in PBS, 100 μl/well at 4° C. overnight, then blocked with 150 μl/well of 1% BSA. Three-fold dilutions of tested antibodies starting from 1 μg/ml were added to each well and incubated for 1 hour at 37° C. The plates were washed with PBS/Tween and then incubated with Anti-Human IgG (H&L) (GOAT) Antibody Peroxidase Conjugated for 30 mins at 37° C. After washing, the plates were developed with TMB substrate and analyzed by spectrophotometer at OD 450 nm.

mouse FAPα-His protein [5] = target: T2, mouse FAPα-His protein; assay: ELISA, coated mouse FAPα-His
Protocol: as §2

B1: G14 (antibody, V domains shown)
VH: QVQLLESGGGVVQPGRSLRLSCAASGFTFSSYAMHWVRQAPGKGLEWVAFISHDGNRNSYADSVRGRFTISRDNSKNTLYLQMNSLRAEDTAVYYCARDLGYYNGFSYWGQGTLVTVSA
VL: DIVMTQSPSSVSASVGDRVTITCRASQGISSWLAWYQQKPGKAPKLLIYAASSLQSGVPSRFSGSGSGTDFTLTISSLQPEDFATYYCQQANSFPPTFGPGTKVDIK
notes: Full human antibody from a Fab phage library; Tested as a mAb (detected with anti-human IgG, captured on Protein A); also called FAP-G14; FAP-G14-Bio (biotin-conjugated form)
OD 450 nm [1]: 0.209 OD 450 nm | OD 450 nm [2]: 0.658 OD 450 nm | OD 450 nm [3]: 0.399 OD 450 nm | binding result (mouse FAPα-His protein [4]): no binding (tested: 1000 ng/ml)

B2: J40 (antibody, V domains shown)
VH: EVQLLESGGGLVQPGGSLRLSCAASGFTFSSYAMSWVRQAPGKGLEWVSAISGSGGSTYYADSVKGRFTISRDNSKNTLYLQMNSLRTDDTAVYYCARDLTTSTGWESWGQGTLVTVSA
VL: NIQMTQSPSSVSASVGDRVTITCRASQGISSWLAWYQQKPGKAPKLLIYAASSLQSGVPSRFSGSGSGTDFTLTISSLQPEDFATYYCQQANSFPPTFGQGTKLEIK
notes: Tested as a mAb; also called FAP-J40; FAP-J40-Bio (biotin-conjugated form)
OD 450 nm [1]: 0.167 OD 450 nm | OD 450 nm [2]: 0.527 OD 450 nm | OD 450 nm [3]: 0.343 OD 450 nm | binding result (mouse FAPα-His protein [4]): no binding (tested: 1000 ng/ml)

B3: I37 (antibody, V domains shown)
VH: QLQLVESGGGLVQPGGSLRLSCAASGFTFSSYAMSWVRQAPGKGLEWVSAISGSGGSTYYADSVKGRFTISRDNSKNTLYLQMNSLRAEDTAVYYCARDKPWGGSFDYWGQGTLVTVSA
VL: DIQLTQSPSSLSASVGDRVTITCRASQGISSWLAWYQQKPGKAPKLLIYAASSLQSGVPSRFSGSGSGTDFTLTISSLQPEDFATYYCQQANSFPVTFGPGTKVDIK
notes: Tested as a mAb; also called FAP-I37
EC50 (mouse FAPα-His protein [5]): 5.2 ng/mL | OD 450 nm [1]: 0.224 OD 450 nm | OD 450 nm [2]: 0.703 OD 450 nm | OD 450 nm [3]: 0.46 OD 450 nm

B4: I30 (antibody, V domains shown)
VH: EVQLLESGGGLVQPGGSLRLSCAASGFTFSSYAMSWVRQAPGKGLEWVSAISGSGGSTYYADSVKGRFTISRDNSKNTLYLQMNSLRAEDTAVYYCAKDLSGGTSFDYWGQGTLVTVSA
VL: AIRLTQSPSSVSASVGDRVTITCRASQGISSWLAWYQQKPGKAPKLLIYAASSLQSGVPSRFSGSGSGTDFTLTISSLQPEDFATYYCQQANSFPPTFGGGTKVEIK
notes: Tested as a mAb; also called 130; FAP-I30
OD 450 nm [1]: 0.129 OD 450 nm | OD 450 nm [2]: 0.324 OD 450 nm | OD 450 nm [3]: 0.151 OD 450 nm | binding result (mouse FAPα-His protein [4]): no binding (tested: 1000 ng/ml)
